Measured values as given in patent US20240116985A1, “STAPLED PEPTIDES AND METHODS THEREOF” (priority 2020, published 2024).
Starred links: 1 amine or outer side, 2 acyl side, 3 side chain; linkers in the order of their positions; H or OH if unused. Positions of bridges follow the written chain, without caps; N, C: chain ends. Non-standard residues stand in square brackets, D forms with d. Primed or numbered codes have the meaning given here. No end group written: not given here. *: point of attachment. PyrS2″ = (S)-3-amino-1-((pent-4-en-1-yloxy)carbonyl)pyrrolidine-3-carboxylic acid (stapling residue), C=CCCCOC(=O)N1CC[C@@](N[*:1])(C(=O)[*:2])C1; B5(30) = 2-amino-2-(pent-4-en-1-yl)hept-6-enoic acid (2,2-bis(4-pentenyl)glycine, stitching residue), C=CCCCC(CCCC=C)(N[*:1])C(=O)[*:2]; B5(4) = 2,2-bis(4-pentenyl)glycine = 2-amino-2-(pent-4-en-1-yl)hept-6-enoic acid (stitching residue), C=CCCCC(CCCC=C)(N[*:1])C(=O)[*:2]; B5(5) = 2,2-bis(4-pentenyl)glycine, 2-amino-2-(pent-4-en-1-yl)hept-6-enoic acid (stitching residue), C=CCCCC(CCCC=C)(N[*:1])C(=O)[*:2]; TfeGA = (S)-2-amino-3-((carboxymethyl)(2,2,2-trifluoroethyl)amino)propanoic acid, O=C([C@H](CN(CC(=O)[*:3])CC(F)(F)F)N[*:1])[*:2]; PyrS2 = (S)-3-amino-1-((pent-4-en-1-yloxy)carbonyl)pyrrolidine-3-carboxylic acid, C=CCCCOC(=O)N1CC[C@@](N[*:1])(C(=O)[*:2])C1; B5(3) = 2,2-bis(4-pentenyl)glycine (stitching residue), C=CCCCC(CCCC=C)(N[*:1])C(=O)[*:2]; ProSAm3 = (allylsulfonyl)-D-proline, C=CCS(=O)(=O)N1CCC[C@@H]1C(=O)*; Phe(3-Ph) = N[C@@H](Cc1cccc(-c2ccccc2)c1)C(=O)O; Phe(3-COOH) = N[C@@H](Cc1cccc(C(=O)O)c1)C(=O)O; Phe(2-CF3) = N[C@@H](Cc1ccccc1C(F)(F)F)C(=O)O; Asp(3,3-Me2) = CC(C)(C(=O)O)[C@H](N)C(=O)O; Asp(3R-OH) = N[C@H](C(=O)O)[C@@H](O)C(=O)O; Phe(2-Cl) = N[C@@H](Cc1ccccc1Cl)C(=O)O; Phe(3-F) = N[C@@H](Cc1cccc(F)c1)C(=O)O; Phe(4-F) = N[C@@H](Cc1ccc(F)cc1)C(=O)O; Bta = N[C@@H](Cc1csc2ccccc12)C(=O)O; Lys(iPr) = CC(C)NCCCC[C@H](N)C(=O)O; αAllylPro = C=CC[C@@]1(C(=O)O)CCCN1; Azidoacetyl = [N-]=[N+]=NCC(=O)*; tBuAla = CC(C)(C)C[C@H](N)C(=O)O; 3Thi = N[C@@H](Cc1ccsc1)C(=O)O; 2F3MeF″ = Phe derivative; Ac3c = NC1(C(=O)O)CC1; ClAc = O=C(CCl)*

Target: full-length beta-Catenin (Uniprot ID P35222) (Homo sapiens (Human)) (UniProt P35222)
Test: fluorescence polarization competition vs 5FAM-TCF4(10-53) on full-length beta-catenin
Target sequence in this assay (P35222 whole entry): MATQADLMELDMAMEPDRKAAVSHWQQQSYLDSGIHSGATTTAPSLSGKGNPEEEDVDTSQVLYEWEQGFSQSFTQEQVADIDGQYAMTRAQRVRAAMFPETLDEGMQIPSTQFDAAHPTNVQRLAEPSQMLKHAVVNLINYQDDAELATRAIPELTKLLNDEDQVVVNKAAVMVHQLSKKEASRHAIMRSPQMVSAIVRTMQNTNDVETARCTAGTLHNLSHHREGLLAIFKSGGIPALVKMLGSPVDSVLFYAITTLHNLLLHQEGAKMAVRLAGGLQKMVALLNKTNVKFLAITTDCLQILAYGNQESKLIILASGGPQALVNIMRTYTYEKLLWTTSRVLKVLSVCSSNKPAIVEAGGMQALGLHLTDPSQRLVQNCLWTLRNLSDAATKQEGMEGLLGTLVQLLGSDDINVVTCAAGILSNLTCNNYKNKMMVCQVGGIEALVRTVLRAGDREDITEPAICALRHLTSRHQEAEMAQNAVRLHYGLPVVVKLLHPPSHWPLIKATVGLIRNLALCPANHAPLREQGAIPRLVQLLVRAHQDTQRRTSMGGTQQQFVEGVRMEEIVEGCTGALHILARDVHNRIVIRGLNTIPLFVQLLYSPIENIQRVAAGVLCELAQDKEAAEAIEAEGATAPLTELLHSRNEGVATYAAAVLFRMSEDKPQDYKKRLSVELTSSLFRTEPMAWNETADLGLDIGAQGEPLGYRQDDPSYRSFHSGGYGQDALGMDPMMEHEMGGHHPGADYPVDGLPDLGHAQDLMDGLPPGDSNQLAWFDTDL

Binder | EC50 [nM] | IC50 [nM]
Ac-[αAllylPro]DK(Azidoacetyl)[B5(4)]DDAAFN[PyrS2″][3Thi][Bta]Q-NH2 (staple 1-4, 4-11) [I-880] | 6 | 
Ac-[αAllylPro]D[tBuAla][B5(30)]NTAAFR[PyrS2][3Thi][Bta]Q-NH2 (staple 1-4, 4-11; also: later-eluting HPLC isomer) [I-1883] |  | 884
Ac-[αAllylPro]D[tBuAla][B5(5)]NTAAFN[PyrS2″][3Thi][Bta]V-NH2 (staple 1-4, 4-11; also: separately listed staple isomer composition) [I-1878] |  | 458
Ac-[αAllylPro]D[tBuAla][B5(30)]NTAAFN[PyrS2″][3Thi][Bta]V-NH2 (staple 1-4, 4-11; also: later-eluting HPLC isomer) [I-1879] |  | 567
Ac-[αAllylPro]D[tBuAla][B5(5)]NTAAFN[PyrS2″][3Thi]WQ-NH2 (staple 1-4, 4-11; also: separately listed staple isomer composition) [I-1877] |  | 1520
Ac-[αAllylPro]D[tBuAla][B5(4)]DDK(Azidoacetyl)AFN[PyrS2″][3Thi][Bta]Q-NH2 (staple 1-4, 4-11) [I-879] | 6 | 
Ac-[αAllylPro]D[tBuAla][B5(5)]NTAAFN[PyrS2″][3Thi]WQ-NH2 (staple 1-4, 4-11; also: separately listed staple isomer composition) [I-1876] |  | 1340
Ac-[αAllylPro]D[tBuAla][B5(30)]NTAAFN[PyrS2][3Thi][Bta]L-NH2 (staple 1-4, 4-11; also: later-eluting HPLC isomer) [I-1881] |  | 743
Ac-[αAllylPro]D[tBuAla][B5(4)]DDAAFN[PyrS2″][3Thi][Bta]K(Azidoacetyl)-NH2 (staple 1-4, 4-11) [I-878] | 6 | 
Ac-[αAllylPro]D[tBuAla][B5(30)]NTAAFR[PyrS2][3Thi][Bta]Q-NH2 (staple 1-4, 4-11; also: earlier-eluting HPLC isomer) [I-1882] |  | 397
Ac-[αAllylPro]D[tBuAla][B5(30)]NTAAFN[PyrS2][3Thi][Bta]L-NH2 (staple 1-4, 4-11; also: earlier-eluting HPLC isomer) [I-1880] |  | 868

Target: full-length beta-Catenin (Uniprot ID P35222) (Homo sapiens (Human)) (UniProt P35222)
Test: fluorescence polarization competition; full-length beta-catenin, competitor 5FAM-TCF4(10-53)

Binder | IC50 [nM]
Ac-[αAllylPro][Asp(3R-OH)][tBuAla][B5(3)]D[Phe(3-COOH)]AAFL[PyrS2″][3Thi][Bta]A-NH2 (staple 1-4, 4-11) [I-2258] | 272
Ac-[αAllylPro]D[tBuAla][B5(4)]D[TfeGA][Lys(iPr)]AFT[PyrS2″][3Thi][Bta]L-NH2 (staple 1-4, 4-11; also: -CH=CH- in each staple reduced to -CH2-CH2-) [I-1766] | 267
Ac-[αAllylPro]D[tBuAla][B5(4)]D[TfeGA]AAFT[PyrS2″][3Thi][Bta]V-NH2 (staple 1-4, 4-11; also: -CH=CH- in each staple reduced to -CH2-CH2-) [I-1758] | 235
Ac-[αAllylPro]D[tBuAla][B5(4)]D[TfeGA]AAFT[PyrS2″][3Thi][Bta]F-NH2 (staple 1-4, 4-11; also: -CH=CH- in each staple reduced to -CH2-CH2-) [I-1756] | 329
Ac-[αAllylPro]D[tBuAla][B5(5)]D[Phe(3-COOH)]AAFL[PyrS2″][Phe(2-CF3)][Bta]QL[Ac3c]-NH2 (staple 1-4, 4-11) [I-2389] | 72
Ac-[αAllylPro]D[tBuAla][B5(5)]D[TfeGA][Lys(iPr)]AFL[PyrS2″][3Thi][Bta]F-NH2 (staple 1-4, 4-11) [I-1761] | 39
Ac-[αAllylPro]D[tBuAla][B5(4)]D[TfeGA][Lys(iPr)]AFL[PyrS2″][3Thi][Bta]F-NH2 (staple 1-4, 4-11; also: -CH=CH- in each staple reduced to -CH2-CH2-) [I-1767] | 327
[ProSAm3]D[tBuAla][B5(3)]D[TfeGA]AAFL[PyrS2″][3Thi][Bta]Q-NH2 (staple (positions not given here); staple 4-11; not fully specified (bridges); also: staple double bonds reduced to -CH2-CH2-) [I-2267] | 499
Ac-[αAllylPro]D[tBuAla][B5(3)]D[Phe(3-COOH)]AAFL[PyrS2″][Phe(3-Ph)][2F3MeF″]Q-NH2 (staple 1-4, 4-11) [I-2256] | 8410
Ac-[αAllylPro]D[tBuAla][B5(4)]D[TfeGA]AAFL[PyrS2″][3Thi][Bta]V-NH2 (staple 1-4, 4-11; also: -CH=CH- in each staple reduced to -CH2-CH2-) [I-1757] | 449
Ac-[αAllylPro]D[tBuAla][B5(5)]D[TfeGA][Lys(iPr)]AFT[PyrS2″][3Thi][Bta]V-NH2 (staple 1-4, 4-11; also: -CH=CH- in each staple reduced to -CH2-CH2-) [I-1770] | 175
Ac-[αAllylPro]D[tBuAla][B5(3)]D[Phe(3-COOH)]AAFL[PyrS2″][Phe(3-F)][Bta]A-NH2 (staple 1-4, 4-11) [I-2261] | 34
[ProSAm3]D[tBuAla][B5(3)]D[TfeGA]AAFL[PyrS2″][3Thi][Bta]Q-NH2 (staple (positions not given here); staple 4-11; not fully specified (bridges)) [I-2266] | 266
Ac-[αAllylPro]D[tBuAla][B5(4)]D[TfeGA][Lys(iPr)]AFL[PyrS2″][3Thi][Bta]V-NH2 (staple 1-4, 4-11; also: -CH=CH- in each staple reduced to -CH2-CH2-) [I-1769] | 419
Ac-[αAllylPro]D[tBuAla][B5(4)]D[TfeGA]AAFL[PyrS2″][3Thi][Bta]F-NH2 (staple 1-4, 4-11; also: -CH=CH- in each staple reduced to -CH2-CH2-) [I-1755] | 570
Ac-[αAllylPro]D[tBuAla][B5(4)]D[TfeGA][Lys(iPr)]AFL[PyrS2″][3Thi][Bta]L-NH2 (staple 1-4, 4-11; also: -CH=CH- in each staple reduced to -CH2-CH2-) [I-1765] | 667
Ac-[αAllylPro]D[tBuAla][B5(5)]D[TfeGA][Lys(iPr)]AFL[PyrS2″][3Thi][Bta]L-NH2 (staple 1-4, 4-11) [I-1759] | 57
Ac-[αAllylPro]D[tBuAla][B5(4)][Asp(3,3-Me2)][TfeGA]AAFL[PyrS2″][3Thi][Bta]Q-NH2 (staple 1-4, 4-11) [I-1771] | 209
Ac-[αAllylPro]D[tBuAla][B5(5)]D[TfeGA][Lys(iPr)]AFT[PyrS2″][3Thi][Bta]L-NH2 (staple 1-4, 4-11) [I-1760] | 32
ClAc-[αAllylPro]D[tBuAla][B5(3)]D[Phe(3-COOH)]AAFL[PyrS2″][Phe(2-Cl)][Bta]A-NH2 (staple 1-4, 4-11) [I-2253] | 189
Ac-[αAllylPro]D[tBuAla][B5(5)]D[TfeGA][Lys(iPr)]AFT[PyrS2″][3Thi][Bta]V-NH2 (staple 1-4, 4-11) [I-1764] | 23
Ac-[αAllylPro]D[tBuAla][B5(3)]D[Phe(3-COOH)]AAFL[PyrS2″][Phe(4-F)][Bta]A-NH2 (staple 1-4, 4-11) [I-2263] | 47
Ac-[αAllylPro]D[tBuAla][B5(5)]D[TfeGA][Lys(iPr)]AFL[PyrS2″][3Thi][Bta]V-NH2 (staple 1-4, 4-11) [I-1763] | 52
